Source: patent US20060257938A1, “Method of screening for drugs that block ligand binding to a lipid binding protein” (priority 2005, published 2006)
Changes are numbered by the printed parent chain. In names and notes the source's numbering stands. Several values for one entry are separate records, joined by “and”; a condition that tells them apart may be missing. Equal entries are not always repeated.

B1: L2P17H10: FABP probe, substitutions M18G G31F A73L vs SEQ ID NO: 2 (protein, listed as Rattus norvegicus)
chain: AFDGTWKVDRNENYEKFGEKMGINVVKRKLFAHDNLKLTITQEGNKFTVKESSNFRNIDVVFELGVDFAYSLLDGTELTGTWTMEGNKLVGKFKRVDNGKELIAVREISGNELIQTYTYEGVEAKRIFKKE
modifications: PEPTIDE (1)...(131) wild-type rat intestinal fatty acid binding protein
B2: L2P22G6: FABP probe, substitutions M18I G31Y A73G vs SEQ ID NO: 2 (protein, listed as Rattus norvegicus)
chain: B1 chain with G18I, F31Y, L73G
modifications: PEPTIDE (1)...(131) wild-type rat intestinal fatty acid binding protein
B3: L2P11B4: FABP probe, substitutions M18V G31A A73W vs SEQ ID NO: 2 (protein, listed as Rattus norvegicus)
chain: B1 chain with G18V, F31A, L73W
modifications: PEPTIDE (1)...(131) wild-type rat intestinal fatty acid binding protein
B4: L2P2E11: FABP probe, substitutions M18I G31F vs SEQ ID NO: 2 (protein, listed as Rattus norvegicus)
chain: B1 chain with G18I, L73A
modifications: PEPTIDE (1)...(131) wild-type rat intestinal fatty acid binding protein
B5: 72H 73P 74L (protein, listed as Rattus norvegicus)
chain: B1 chain with G18M, F31G, L72H, L73P, D74L
modifications: PEPTIDE (1)...(131) wild-type rat intestinal fatty acid binding protein
B6: 38Y 62W 117A 72A (protein, listed as Rattus norvegicus)
chain: B1 chain with G18M, F31G, L38Y, F62W, L72A, L73A, Y117A
modifications: PEPTIDE (1)...(131) wild-type rat intestinal fatty acid binding protein
B7: 72S 73P 74I (protein, listed as Rattus norvegicus)
chain: B1 chain with G18M, F31G, L72S, L73P, D74I
modifications: PEPTIDE (1)...(131) wild-type rat intestinal fatty acid binding protein
B8: 18I 31F 72A (protein, listed as Rattus norvegicus)
chain: B1 chain with G18I, L72A, L73A
modifications: PEPTIDE (1)...(131) wild-type rat intestinal fatty acid binding protein
B9: 72T 73W 74G (protein, listed as Rattus norvegicus)
chain: B1 chain with G18M, F31G, L72T, L73W, D74G
modifications: PEPTIDE (1)...(131) wild-type rat intestinal fatty acid binding protein
B10: L1P12 E8: FABP probe, mutations 14L 38A 72G 117F 114E vs SEQ ID NO: 2 (protein, listed as Rattus norvegicus)
chain: B1 chain with Y14L, G18M, F31G, L38A, L72G, L73A, I114E, Y117F
modifications: PEPTIDE (1)...(131) wild-type rat intestinal fatty acid binding protein
B11: L2P22 B1: FABP probe, mutations 18Y 31V 55V 72A vs SEQ ID NO: 2 (protein, listed as Rattus norvegicus)
chain: B1 chain with G18Y, F31V, F55V, L72A, L73A
modifications: PEPTIDE (1)...(131) wild-type rat intestinal fatty acid binding protein
B12: L1P14 D6: FABP probe, mutations 14M 72V 117W vs SEQ ID NO: 2 (protein, listed as Rattus norvegicus)
chain: B1 chain with Y14M, G18M, F31G, L72V, L73A, Y117W
modifications: PEPTIDE (1)...(131) wild-type rat intestinal fatty acid binding protein
B13: L1P5 H9: FABP probe, mutations 14M 72I 117W vs SEQ ID NO: 2 (protein, listed as Rattus norvegicus)
chain: B1 chain with Y14M, G18M, F31G, L72I, L73A, Y117W
modifications: PEPTIDE (1)...(131) wild-type rat intestinal fatty acid binding protein
B14: L1P1 C12: FABP probe, mutations 38I 72W 117W vs SEQ ID NO: 2 (protein, listed as Rattus norvegicus)
chain: B1 chain with G18M, F31G, L38I, L72W, L73A, Y117W
modifications: PEPTIDE (1)...(131) wild-type rat intestinal fatty acid binding protein
B15: L1P1 B4: FABP probe, mutations 14I 72W 117W vs SEQ ID NO: 2 (protein, listed as Rattus norvegicus)
chain: B1 chain with Y14I, G18M, F31G, L72W, L73A, Y117W
modifications: PEPTIDE (1)...(131) wild-type rat intestinal fatty acid binding protein
B16: L5P16 H4: FABP probe, mutations 126K 73F 72A vs SEQ ID NO: 2 (protein, listed as Rattus norvegicus)
chain: B1 chain with G18M, F31G, L72A, L73F, R126K
modifications: PEPTIDE (1)...(131) wild-type rat intestinal fatty acid binding protein
B17: 72F (protein, listed as Rattus norvegicus)
chain: B1 chain with G18M, F31G, L72F, L73A
modifications: PEPTIDE (1)...(131) wild-type rat intestinal fatty acid binding protein
B18: 119M, 72A (protein, listed as Rattus norvegicus)
chain: B1 chain with G18M, F31G, L72A, L73A, Y119M
modifications: PEPTIDE (1)...(131) wild-type rat intestinal fatty acid binding protein

experiment: Probe fluorescence ratio response to palmitoleic acid relative to ADIFAB2; assay type: binding; conditions: Table 5
In short: (§1)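 Fluorescently labeled rat intestinal FABP variants were read at two emission wavelengths, near the unbound maximum (about 420 to 480 nm) and the FFA-bound maximum (about 495 to 580 nm). R = Fλ1/Fλ2 after subtracting probe-free intensity; ΔR = R+agent − R0, normalized to ADIFAB2 (rI-FABP-L72A).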

Molecule | ΔR/DRAΔ2 POA
B1 | 1.2
B2 | 2.6
B3 | 3.1
B4 | 2.6

same assay, conditions: response relative to ADIFAB2

Molecule | DR/DR POA
B5 | 7.165
B6 | 0.272
B7 | 3.155
B8 | 2.659
B9 | 2.770

experiment: Probe fluorescence intensity change with UCB:BSA; assay type: binding; conditions: 1:1 UCB:BSA, 440 nm

Molecule | ΔI/Io 1:1 UCB:BSA 440 nm
B10 | −0.79
B11 | −0.70
B12 | −0.69
B13 | −0.58
B14 | −0.92
B15 | −0.66
B16 | −0.69

same assay, conditions: 1:1 UCB:BSA, 500 nm

Molecule | ΔI/Io 1:1 UCB:BSA 500 nm
B10 | −0.70
B11 | −0.68
B12 | −0.64
B13 | −0.63
B14 | −0.86
B15 | −0.64
B16 | −0.64

same assay, conditions: 1:2 UCB:BSA, 440 nm

Molecule | ΔI/Io 1:2 UCB:BSA 440 nm
B10 | −0.45
B11 | −0.36
B12 | −0.37
B13 | −0.34
B14 | −0.86
B15 | −0.36
B16 | −0.37

same assay, conditions: 1:2 UCB:BSA, 500 nm

Molecule | ΔI/Io 1:2 UCB:BSA 500 nm
B10 | −0.39
B11 | −0.35
B12 | −0.33
B13 | −0.34
B14 | −0.79
B15 | −0.35
B16 | −0.31

experiment: Probe fluorescence ratio response to linolenic acid relative to ADIFAB2; assay type: binding; conditions: Table 5
In short: as §1

Molecule | ΔR/DRAΔ2 LNA
B1 | 1.2
B2 | 2.7
B3 | 2.8
B4 | 2.8

same assay, conditions: response relative to ADIFAB2

Molecule | DR/DR LNA
B17 | 0.59 and 0.592
B5 | 6.352
B6 | 1.237
B7 | 3.091
B8 | 3.027
B18 | 2.280
B9 | 1.702

experiment: Probe fluorescence ratio response to palmitic acid relative to ADIFAB2; assay type: binding; conditions: Table 5
In short: as §1

Molecule | ΔR/DRAΔ2 PA
B1 | 1.0
B2 | 1.9
B3 | 2.2
B4 | 2.0

same assay, conditions: response relative to ADIFAB2

Molecule | DR/DR PA
B17 | 0.46 and 0.456
B5 | 5.260
B6 | 0.316
B7 | 2.210
B8 | 2.037
B18 | 0.722
B9 | 1.817

experiment: Response profile of probe to fatty acids (Table 2); assay type: binding; conditions: not given

Molecule | response profile
B17 | AA lowest
B5 | Large Response, Favors
B6 | Favors AA
B7 | Favors POA and LNA
B8 | Favors LNA
B18 | Favors LNA
B9 | SA and AA lowest

experiment: Probe fluorescence ratio response to stearic acid relative to ADIFAB2; assay type: binding; conditions: Table 5
In short: as §1

Molecule | ΔR/DRAΔ2 SA
B1 | 1.7
B2 | 0.9
B3 | 0.7
B4 | 0.8

same assay, conditions: response relative to ADIFAB2

Molecule | DR/DR SA
B5 | 1.474
B6 | 0.854
B7 | 1.337
B8 | 0.950
B9 | 0.305

experiment: Probe fluorescence ratio response to arachidonic acid relative to ADIFAB2; assay type: binding; conditions: Arachidonic acid; response relative to ADIFAB2
In short: as §1

Molecule | DR/DR AA
B17 | 0.40

same assay, conditions: Table 5; Arachidonic acid

Molecule | ΔR/DRAΔ2 AA
B1 | 1.8
B2 | 1.8
B3 | 1.8
B4 | 1.9

same assay, conditions: arachidonic acid; response relative to ADIFAB2

Molecule | DR/DR AA
B17 | 0.401
B5 | 4.597
B6 | 2.353
B7 | 2.154
B8 | 2.043
B18 | 1.087
B9 | 0.687

experiment: Probe fluorescence ratio response to oleic acid relative to ADIFAB2; assay type: binding; conditions: Table 5
In short: as §1

Molecule | ΔR/DRAΔ2 OA
B1 | 1.4
B2 | 1.6
B3 | 1.9
B4 | 1.6

same assay, conditions: response relative to ADIFAB2

Molecule | DR/DR OA
B17 | 0.57 and 0.571
B5 | 3.919
B6 | 1.896
B7 | 2.162
B8 | 1.761
B18 | 1.191
B9 | 0.822

experiment: Probe fluorescence ratio response to linoleic acid relative to ADIFAB2; assay type: binding; conditions: Table 5
In short: as §1

Molecule | ΔR/DRAΔ2 LA
B1 | 1.5
B2 | 2.6
B3 | 2.6
B4 | 2.5

same assay, conditions: response relative to ADIFAB2

Molecule | DR/DR LA
B17 | 0.61 and 0.612
B5 | 5.429
B6 | 1.848
B7 | 2.792
B8 | 2.707
B18 | 1.184
B9 | 1.348
